According to patent US20100256055A1 (ANGIOCHEM, published 2010):
Square brackets hold non-standard residues; d marks the D form. pGlu = O=C1CC[C@@H](C(=O)O)N1

Tests used:
[1] = molecular target: NT receptor NTSR1 (high affinity NTSR1 receptor) on HT29 cells (human) (UniProt P30989); assay: competition with [3H]-NT on HT29 cells expressing NTSR1
[2] = molecular target: T1, NT receptor NTSR1 (high affinity NTSR1 receptor) on HT29 cells (human, UniProt P30989 1-418); assay: as above
T1 construct: whole, on cells; also called neurotensin receptor type 1; NTR1
T1 sequence (P30989 whole entry): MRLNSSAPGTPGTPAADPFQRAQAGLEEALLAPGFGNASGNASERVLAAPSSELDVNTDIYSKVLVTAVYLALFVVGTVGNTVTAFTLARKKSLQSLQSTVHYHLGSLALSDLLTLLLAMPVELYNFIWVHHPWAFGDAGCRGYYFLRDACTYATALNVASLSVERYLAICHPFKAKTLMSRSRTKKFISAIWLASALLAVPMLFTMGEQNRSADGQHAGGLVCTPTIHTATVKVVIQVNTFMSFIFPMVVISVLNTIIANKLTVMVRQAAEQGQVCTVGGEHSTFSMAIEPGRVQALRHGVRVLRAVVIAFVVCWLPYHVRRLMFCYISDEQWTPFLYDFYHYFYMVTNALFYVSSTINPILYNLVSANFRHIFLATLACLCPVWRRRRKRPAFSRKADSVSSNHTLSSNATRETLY

Chain of NT receptor NTSR1 (high affinity NTSR1 receptor) on HT29 cells (human) (P30989 whole entry): as above

Row | IC50 [1] [nM] | fold weaker binding than native NT [1] [fold] | IC50 [2] [nM] | Molecule
1 | 5390 | > 1000 | – | Ac-Lys-[D-Tyr^11]NT(8-13) (Ac-KRRPD-YIL-OH) (peptide)
2 | – | – | 1.3 | [pGlu]KRRPYIL-OH (SMILES CC[C@H](C)[C@H](NC(=O)[C@H](Cc1ccc(O)cc1)NC(=O)[C@@H]1CCCN1C(=O)[C@H](CCCNC(=N)N)NC(=O)[C@H](CCCNC(=N)N)NC(=O)[C@H](CCCCN)NC(=O)[C@@H]1CCC(=O)N1)C(=O)N[C@@H](CC(C)C)C(=O)O, Structure printed only as drawing CHEM-US-00006; The chain is built from the name, and Mw 1056.26 fits pGlu-KRRPYIL; also called pE-Lys-NT(8-13); pGlu-NT(8-13)) [pGlu-LysNT(8-13)]
3 | – | – | 1 | Ac-KRRPYIL-OH (Structure printed only as drawing CHEM-US-00004; The chain is built from the name, and Mw 987.20 fits Ac-KRRPYIL) [Ac-LysNT(8-13)]
